This is an account of results in US8889621B2, “Inhibiting binding of FGF23 to the binary FGFR-Klotho complex for the treatment of hypophosphatemia” (New York University, priority 2009, dated 2014).

“Also recorded” adds a separate entry of the source.

The target of assay [1] is T1, binary FGFR1c-Klotho complex (UniProt O35082+P11362).
T1 construct: The ectodomain of murine Klotho (A35 to K982) was purified from culture media; FLAG (C); made in house; host or cells: E. coli (FGFR1c, FGF23); HEK293 (Klotho ectodomain)
T1 sequence (P11362 142-365): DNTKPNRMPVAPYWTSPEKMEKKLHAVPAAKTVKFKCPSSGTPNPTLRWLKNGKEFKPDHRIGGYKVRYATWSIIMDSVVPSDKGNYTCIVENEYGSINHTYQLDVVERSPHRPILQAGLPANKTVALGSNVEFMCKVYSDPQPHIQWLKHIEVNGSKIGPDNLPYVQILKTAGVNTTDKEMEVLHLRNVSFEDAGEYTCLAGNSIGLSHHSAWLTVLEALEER
T1 sequence (O35082 35-982): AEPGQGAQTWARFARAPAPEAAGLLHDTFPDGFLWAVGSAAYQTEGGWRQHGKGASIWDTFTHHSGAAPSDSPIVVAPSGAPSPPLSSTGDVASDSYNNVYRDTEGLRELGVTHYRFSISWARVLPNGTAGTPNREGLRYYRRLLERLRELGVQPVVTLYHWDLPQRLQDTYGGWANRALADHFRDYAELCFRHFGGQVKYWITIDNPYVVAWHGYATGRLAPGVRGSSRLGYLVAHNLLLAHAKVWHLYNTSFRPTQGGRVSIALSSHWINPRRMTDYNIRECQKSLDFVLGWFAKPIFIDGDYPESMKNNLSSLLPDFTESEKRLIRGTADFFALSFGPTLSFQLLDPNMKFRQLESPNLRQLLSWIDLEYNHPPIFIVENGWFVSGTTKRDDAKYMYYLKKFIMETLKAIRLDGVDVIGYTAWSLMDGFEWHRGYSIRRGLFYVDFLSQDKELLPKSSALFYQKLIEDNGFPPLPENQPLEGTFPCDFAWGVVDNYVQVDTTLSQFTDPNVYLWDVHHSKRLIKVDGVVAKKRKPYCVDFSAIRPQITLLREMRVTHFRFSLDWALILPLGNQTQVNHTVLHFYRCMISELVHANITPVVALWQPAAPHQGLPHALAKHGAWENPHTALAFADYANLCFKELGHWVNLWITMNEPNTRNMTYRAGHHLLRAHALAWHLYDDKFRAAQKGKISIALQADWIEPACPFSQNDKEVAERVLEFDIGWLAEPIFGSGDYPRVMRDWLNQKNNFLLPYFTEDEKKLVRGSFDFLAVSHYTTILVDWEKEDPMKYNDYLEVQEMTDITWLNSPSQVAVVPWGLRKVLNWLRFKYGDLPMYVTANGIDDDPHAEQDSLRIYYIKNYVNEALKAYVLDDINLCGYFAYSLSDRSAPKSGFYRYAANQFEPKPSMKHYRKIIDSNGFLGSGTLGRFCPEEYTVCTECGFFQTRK
Kind of assay: SPR competition: FGFR1c-Klotho binding to immobilized FGF23^28-251. Details: species or system human FGFR1c, murine Klotho. As to conditions: FGF21^168-209 at molar ratios of 6:1 and 10:1. As for the experimental part:
A variety of interaction or binding assays can be used to determine that an agent specifically binds the binary FGFR-Klotho complex, such as the SPR interaction analysis described below. One aspect of the present invention utilizes SPR analysis of FGF23 protein/peptide binding to the binary FGFR-Klotho complex. The SPR analysis involved FGF23 protein/peptide immobilization by amine coupling on flow channels of a chip. Proteins were injected over the chip at a flow rate of 50 μl min^−1, and at the end of each protein injection (180 s), HBS-EP buffer (10 mM HEPES-NaOH, pH 7.4, 150 mM NaCl, 3 mM EDTA, 0.005% (v/v) polysorbate 20; 50 μl min^−1) was flowed over the chip to monitor dissociation for 180 s. The chip surface was then regenerated by injecting 50 μl of 2.0 M NaCl in 10 mM sodium acetate, pH 4.5. […] For each protein injection over a FGF23 protein/peptide chip, the nonspecific responses from the FHF1B control flow channel were subtracted from the responses recorded for the flow channel onto which FGF23 protein/peptide was immobilized. To analyze FGF23 binding to the binary FGFR1c-Klotho complex, FGF23^28-251 was coupled to a chip, and increasing concentrations of 1:1 complex of the ectodomains of FGFR1c and Klotho in HBS-EP buffer were passed over the chip. To measure binding of the C-terminal tail of FGF23 to the binary FGFR1c-Klotho complex, FGF23^180-251 was immobilized on a chip, and increasing concentrations of 1:1 complex of the ectodomains of FGFR1c and Klotho in HBS-EP buffer were passed over the chip. To examine whether the C-terminal tail of FGF23 can compete with full-length FGF23 for binding to the binary FGFR1c-Klotho complex, FGF23^28-251 was immobilized on a chip. Increasing concentrations of FGF23^180-251 were mixed with a fixed concentration of 1:1 complex of the ectodomains of FGFR1c and Klotho in HBS-EP buffer, and the mixtures were passed over the chip. As a control, competition of FGF23 in solution with immobilized FGF23 for binding to the binary FGFR1c-Klotho complex was studied. Increasing concentrations of FGF23^28-251 were mixed with a fixed concentration of 1:1 complex of the ectodomains of FGFR1c and Klotho in HBS-EP buffer, and the mixtures were passed over the FGF23 chip. Competition of the FGF23 C-terminal tail peptide with full-length FGF23 for binding to the binary FGFR1c-Klotho complex was also studied using the “reverse” SPR assay format, where FGF23^180-251 was immobilized on a chip and mixtures of a fixed concentration of 1:1 complex of the ectodomains of FGFR1c and Klotho with increasing concentrations of FGF23^28-251 were passed over the chip. As a control, competition of FGF23 C-terminal tail peptide in solution with immobilized FGF23 C-terminal tail peptide for binding to the binary FGFR1c-Klotho complex was analyzed. Increasing concentrations of FGF23^180-251 were mixed with a fixed concentration of 1:1 complex of the ectodomains of FGFR1c and Klotho in HBS-EP buffer, and the mixtures were passed over the FGF23^180-251 chip. To verify the specificity of the interaction between the FGF23 C-terminal tail and the FGFR1c-Klotho complex, FGF23^28-251 was immobilized on a chip. Increasing concentrations of FGF21^168-209 were mixed with a fixed concentration of 1:1 complex of the ectodomains of FGFR1c and Klotho in HBS-EP buffer, and the mixtures were passed over the chip. In addition, the ability of the FGF23 C-terminal tail peptide to interfere with binary complex formation between βKlotho and either FGF19 or FGF21 was tested, as was its ability to interfere with ternary complex formation between βKlotho, FGFR, and either FGF19 or FGF21. FGF19^23-216 and FGF21^29-209 were immobilized on two flow channels of a chip. FGF23^180-251 and the ectodomain of βKlotho were mixed at a molar ratio of 2:1, and the mixture was injected over the chip. Next, FGF23^180-251 and the 1:1 complex of the ectodomains of FGFR1c and βKlotho were mixed at a molar ratio of 10:1, and the mixture was passed over the FGF19/FGF21 chip. […]

For the next assay, the target named is T2, FGFR1c (Homo sapiens, UniProt P11362).
T2 construct: made in house; host or cells: E. coli
T2 sequence (P11362 142-365): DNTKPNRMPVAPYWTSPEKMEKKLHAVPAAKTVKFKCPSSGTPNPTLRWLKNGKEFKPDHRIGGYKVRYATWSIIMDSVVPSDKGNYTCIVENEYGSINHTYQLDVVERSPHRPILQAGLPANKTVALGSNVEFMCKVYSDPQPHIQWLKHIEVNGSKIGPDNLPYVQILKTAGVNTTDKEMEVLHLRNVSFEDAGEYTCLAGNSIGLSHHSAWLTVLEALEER
The experiment in a line: SPR: FGFR1c ectodomain passed over immobilized Klotho ectodomain. The format is binding. Particulars: 25° C., HBS-EP buffer, read-out: dissociation constant (KD) of the FGFR1c-Klotho interaction. As to the method:
Surface plasmon resonance (SPR) spectroscopy experiments were performed on a Biacore 2000 instrument (Biacore AB), and FGF23-FGFR1c-Klotho interactions were studied at 25° C. in HBS-EP buffer (10 mM HEPES-NaOH, pH 7.4, 150 mM NaCl, 3 mM EDTA, 0.005% (v/v) polysorbate 20). Proteins were immobilized by amine coupling on flow channels of research grade CM5 chips (Biacore AB). Proteins were injected over a CM5 chip at a flow rate of 50 μl min^−1, and at the end of each protein injection (180 s), HBS-EP buffer (50 μl min^−1) was flowed over the chip to monitor dissociation for 180 s. The chip surface was then regenerated by injecting 50 μl of 2.0 M NaCl in 10 mM sodium acetate, pH 4.5. […] For each protein injection over a Klotho chip, the nonspecific responses from the β-glucuronidase control flow channel were subtracted from the responses recorded for the Klotho flow channel. Similarly, for each protein injection over a FGF chip, the nonspecific responses from the FHF1B control flow channel were subtracted from the responses recorded for the FGF flow channel. […]
To analyze Klotho binding to FGFR1c, Klotho ectodomain was immobilized on a chip (˜29-35 fmole/mm^2 of flow channel). […] Maximal equilibrium responses were plotted against the concentrations of FGFR1c ectodomain (FIG. 1B), and from the fitted saturation binding curve the equilibrium dissociation constant (KD) was calculated. […]
On the technique in general: In SPR one partner is held on a chip, and binding of the other changes the refractive index at the surface.

What is called Kd is the constant that tells how readily two partners part at equilibrium.

Turning to “FGF21^168-209: 42-amino acid long C-terminal tail of FGF21 (P168 to S209), expressed in E. coli (PGLPPALPEPPGILAPQPPDVGSSDPLSMVGPSQGRSPSYAS; left off: small tags and cut ends) [reference compound]”, the “inhibition of FGFR1c-Klotho binding to immobilized FGF23^28-251” value in assay [1] was “failed to inhibit; also recorded: no inhibition”.

B1: Klotho: ectodomain of murine Klotho (A35 to K982) purified from HEK293 culture media (protein)
chain: AEPGQGAQTWARFARAPAPEAAGLLHDTFPDGFLWAVGSAAYQTEGGWRQHGKGASIWDTFTHHSGAAPSDSPIVVAPSGAPSPPLSSTGDVASDSYNNVYRDTEGLRELGVTHYRFSISWARVLPNGTAGTPNREGLRYYRRLLERLRELGVQPVVTLYHWDLPQRLQDTYGGWANRALADHFRDYAELCFRHFGGQVKYWITIDNPYVVAWHGYATGRLAPGVRGSSRLGYLVAHNLLLAHAKVWHLYNTSFRPTQGGRVSIALSSHWINPRRMTDYNIRECQKSLDFVLGWFAKPIFIDGDYPESMKNNLSSLLPDFTESEKRLIRGTADFFALSFGPTLSFQLLDPNMKFRQLESPNLRQLLSWIDLEYNHPPIFIVENGWFVSGTTKRDDAKYMYYLKKFIMETLKAIRLDGVDVIGYTAWSLMDGFEWHRGYSIRRGLFYVDFLSQDKELLPKSSALFYQKLIEDNGFPPLPENQPLEGTFPCDFAWGVVDNYVQVDTTLSQFTDPNVYLWDVHHSKRLIKVDGVVAKKRKPYCVDFSAIRPQITLLREMRVTHFRFSLDWALILPLGNQTQVNHTVLHFYRCMISELVHANITPVVALWQPAAPHQGLPHALAKHGAWENPHTALAFADYANLCFKELGHWVNLWITMNEPNTRNMTYRAGHHLLRAHALAWHLYDDKFRAAQKGKISIALQADWIEPACPFSQNDKEVAERVLEFDIGWLAEPIFGSGDYPRVMRDWLNQKNNFLLPYFTEDEKKLVRGSFDFLAVSHYTTILVDWEKEDPMKYNDYLEVQEMTDITWLNSPSQVAVVPWGLRKVLNWLRFKYGDLPMYVTANGIDDDPHAEQDSLRIYYIKNYVNEALKAYVLDDINLCGYFAYSLSDRSAPKSGFYRYAANQFEPKPSMKHYRKIIDSNGFLGSGTLGRFCPEEYTVCTECGFFQTRK
modifications: left off: small tags and cut ends
notes: ectodomain of murine Klotho (A35 to K982) purified from HEK293 culture media
With B1, the Kd with FGFR1c was determined as 72 nM.
